# Experimental data reported in IntAct's records for PubMed 9845368.
# B1: Phytochrome B (Arabidopsis thaliana (Mouse-ear cress)), P14713 (parent)
# chain: MVSGVGGSGGGRGGGRGGEEEPSSSHTPNNRRGGEQAQSSGTKSLRPRSNTESMSKAIQQYTVDARLHAVFEQSGESGKSFDYSQSLKTTTYGSSVPEQQITAYLSRIQRGGYIQPFGCMIAVDESSFRIIGYSENAREMLGIMPQSVPTLEKPEILAMGTDVRSLFTSSSSILLERAFVAREITLLNPVWIHSKNTGKPFYAILHRIDVGVVIDLEPARTEDPALSIAGAVQSQKLAVRAISQLQALPGGDIKLLCDTVVESVRDLTGYDRVMVYKFHEDEHGEVVAESKRDDLEPYIGLHYPATDIPQASRFLFKQNRVRMIVDCNATPVLVVQDDRLTQSMCLVGSTLRAPHGCHSQYMANMGSIASLAMAVIINGNEDDGSNVASGRSSMRLWGLVVCHHTSSRCIPFPLRYACEFLMQAFGLQLNMELQLALQMSEKRVLRTQTLLCDMLLRDSPAGIVTQSPSIMDLVKCDGAAFLYHGKYYPLGVAPSEVQIKDVVEWLLANHADSTGLSTDSLGDAGYPGAAALGDAVCGMAVAYITKRDFLFWFRSHTAKEIKWGGAKHHPEDKDDGQRMHPRSSFQAFLEVVKSRSQPWETAEMDAIHSLQLILRDSFKESEAAMNSKVVDGVVQPCRDMAGEQGIDELGAVAREMVRLIETATVPIFAVDAGGCINGWNAKIAELTGLSVEEAMGKSLVSDLIYKENEATVNKLLSRALRGDEEKNVEVKLKTFSPELQGKAVFVVVNACSSKDYLNNIVGVCFVGQDVTSQKIVMDKFINIQGDYKAIVHSPNPLIPPIFAADENTCCLEWNMAMEKLTGWSRSEVIGKMIVGEVFGSCCMLKGPDALTKFMIVLHNAIGGQDTDKFPFPFFDRNGKFVQALLTANKRVSLEGKVIGAFCFLQIPSPELQQALAVQRRQDTECFTKAKELAYICQVIKNPLSGMRFANSLLEATDLNEDQKQLLETSVSCEKQISRIVGDMDLESIEDGSFVLKREEFFLGSVINAIVSQAMFLLRDRGLQLIRDIPEEIKSIEVFGDQIRIQQLLAEFLLSIIRYAPSQEWVEIHLSQLSKQMADGFAAIRTEFRMACPGEGLPPELVRDMFHSSRWTSPEGLGLSVCRKILKLMNGEVQYIRESERSYFLIILELPVPRKRPLSTASGSGDMMLMMPY
# partner: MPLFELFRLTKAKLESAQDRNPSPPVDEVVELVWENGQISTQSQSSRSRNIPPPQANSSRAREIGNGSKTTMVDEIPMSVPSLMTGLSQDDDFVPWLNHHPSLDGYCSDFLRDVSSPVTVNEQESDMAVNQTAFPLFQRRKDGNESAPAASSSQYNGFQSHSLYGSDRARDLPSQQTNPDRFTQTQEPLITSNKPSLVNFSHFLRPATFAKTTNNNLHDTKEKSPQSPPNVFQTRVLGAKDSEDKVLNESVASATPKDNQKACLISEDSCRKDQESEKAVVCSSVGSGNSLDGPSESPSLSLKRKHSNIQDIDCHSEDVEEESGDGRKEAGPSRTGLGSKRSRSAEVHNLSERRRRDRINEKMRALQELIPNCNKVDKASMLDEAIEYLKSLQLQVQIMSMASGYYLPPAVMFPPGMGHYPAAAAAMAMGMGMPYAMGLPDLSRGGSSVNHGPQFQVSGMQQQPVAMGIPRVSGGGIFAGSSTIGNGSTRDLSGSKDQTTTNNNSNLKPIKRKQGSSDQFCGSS
# B2: Phytochrome A (Arabidopsis thaliana (Mouse-ear cress)), P14712 (parent)
# chain: MSGSRPTQSSEGSRRSRHSARIIAQTTVDAKLHADFEESGSSFDYSTSVRVTGPVVENQPPRSDKVTTTYLHHIQKGKLIQPFGCLLALDEKTFKVIAYSENASELLTMASHAVPSVGEHPVLGIGTDIRSLFTAPSASALQKALGFGDVSLLNPILVHCRTSAKPFYAIIHRVTGSIIIDFEPVKPYEVPMTAAGALQSYKLAAKAITRLQSLPSGSMERLCDTMVQEVFELTGYDRVMAYKFHEDDHGEVVSEVTKPGLEPYLGLHYPATDIPQAARFLFMKNKVRMIVDCNAKHARVLQDEKLSFDLTLCGSTLRAPHSCHLQYMANMDSIASLVMAVVVNEEDGEGDAPDATTQPQKRKRLWGLVVCHNTTPRFVPFPLRYACEFLAQVFAIHVNKEVELDNQMVEKNILRTQTLLCDMLMRDAPLGIVSQSPNIMDLVKCDGAALLYKDKIWKLGTTPSEFHLQEIASWLCEYHMDSTGLSTDSLHDAGFPRALSLGDSVCGMAAVRISSKDMIFWFRSHTAGEVRWGGAKHDPDDRDDARRMHPRSSFKAFLEVVKTRSLPWKDYEMDAIHSLQLILRNAFKDSETTDVNTKVIYSKLNDLKIDGIQELEAVTSEMVRLIETATVPILAVDSDGLVNGWNTKIAELTGLSVDEAIGKHFLTLVEDSSVEIVKRMLENALEGTEEQNVQFEIKTHLSRADAGPISLVVNACASRDLHENVVGVCFVAHDLTGQKTVMDKFTRIEGDYKAIIQNPNPLIPPIFGTDEFGWCTEWNPAMSKLTGLKREEVIDKMLLGEVFGTQKSCCRLKNQEAFVNLGIVLNNAVTSQDPEKVSFAFFTRGGKYVECLLCVSKKLDREGVVTGVFCFLQLASHELQQALHVQRLAERTAVKRLKALAYIKRQIRNPLSGIMFTRKMIEGTELGPEQRRILQTSALCQKQLSKILDDSDLESIIEGCLDLEMKEFTLNEVLTASTSQVMMKSNGKSVRITNETGEEVMSDTLYGDSIRLQQVLADFMLMAVNFTPSGGQLTVSASLRKDQLGRSVHLANLEIRLTHTGAGIPEFLLNQMFGTEEDVSEEGLSLMVSRKLVKLMNGDVQYLRQAGKSSFIITAELAAANK
# partner: B1 partner
# B3: Phytochrome B (Oryza sativa subsp. japonica (Rice)), Q10MG9 (parent)
# chain: MASGSRATPTRSPSSARPAAPRHQHHHSQSSGGSTSRAGGGGGGGGGGGGGAAAAESVSKAVAQYTLDARLHAVFEQSGASGRSFDYTQSLRASPTPSSEQQIAAYLSRIQRGGHIQPFGCTLAVADDSSFRLLAYSENTADLLDLSPHHSVPSLDSSAVPPPVSLGADARLLFAPSSAVLLERAFAAREISLLNPLWIHSRVSSKPFYAILHRIDVGVVIDLEPARTEDPALSIAGAVQSQKLAVRAISRLQALPGGDVKLLCDTVVEYVRELTGYDRVMVYRFHEDEHGEVVAESRRNNLEPYIGLHYPATDIPQASRFLFRQNRVRMIADCHAAPVRVIQDPALTQPLCLVGSTLRSPHGCHAQYMANMGSIASLVMAVIISSGGDDDHNISRGSIPSAMKLWGLVVCHHTSPRCIPFPLRYACEFLMQAFGLQLNMELQLAHQLSEKHILRTQTLLCDMLLRDSPTGIVTQSPSIMDLVKCDGAALYYHGKYYPLGVTPTEVQIKDIIEWLTMCHGDSTGLSTDSLADAGYPGAAALGDAVSGMAVAYITPSDYLFWFRSHTAKEIKWGGAKHHPEDKDDGQRMHPRSSFKAFLEVVKSRSLPWENAEMDAIHSLQLILRDSFRDSAEGTSNSKAIVNGQVQLGELELRGIDELSSVAREMVRLIETATVPIFAVDTDGCINGWNAKVAELTGLSVEEAMGKSLVNDLIFKESEETVNKLLSRALRGDEDKNVEIKLKTFGPEQSKGPIFVIVNACSSRDYTKNIVGVCFVGQDVTGQKVVMDKFINIQGDYKAIVHNPNPLIPPIFASDENTCCSEWNTAMEKLTGWSRGEVVGKLLVGEVFGNCCRLKGPDALTKFMIVLHNAIGGQDCEKFPFSFFDKNGKYVQALLTANTRSRMDGEAIGAFCFLQIASPELQQAFEIQRHHEKKCYARMKELAYIYQEIKNPLNGIRFTNSLLEMTDLKDDQRQFLETSTACEKQMSKIVKDASLQSIEDGSLVLEKGEFSLGSVMNAVVSQVMIQLRERDLQLIRDIPDEIKEASAYGDQYRIQQVLCDFLLSMVRFAPAENGWVEIQVRPNIKQNSDGTDTMLFLFRFACPGEGLPPEIVQDMFSNSRWTTQEGIGLSICRKILKLMGGEVQYIRESERSFFHIVLELPQPQQAASRGTS
# partner: B1 partner
# Variants of: B1
# Conditions: with pif3_arath PIF3, O80536
row,effect of a mutation on the interaction,Variant
1,decreasing interaction,E812K
2,decreasing interaction,A750V

# Variants of: B2
# Conditions: with pif3_arath PIF3, O80536
row,effect of a mutation on the interaction,Variant
1,decreasing interaction,A715V
2,decreasing interaction,G787E

# Variants of: B3
# Conditions: with pif3_arath PIF3, O80536
row,effect of a mutation on the interaction,Variant
1,decreasing interaction,E821K
2,decreasing interaction,A759V
